Test results reported in patent US20210371499A1.

Legend:
DMF5 TCR [1] = molecular target: DMF5 TCR
DMF5 TCR [2] = assay: flow cytometry of Jurkat/MA cells transduced with DMF5, stained with the pooled barcoded tetramer library

Substance | percent tetramer-positive cells (DMF5 TCR [1]) [%] | percent DMF5 positive cells (DMF5 TCR [2]) [%]
CMVpp65/HLA-A*02:01 tetramer (from UniProt P61769 21-119) (peptide-MHC) | 0.1 | –
MART-1/HLA-A*02:01 tetramer (from UniProt P61769 21-119) (peptide-MHC) | – | 33
